Legend:
NMDAR [1] = biological target: T1, NMDAR (Mus musculus, UniProt P35436+P35438+Q01097); test: Pull-down assay of HT-tau oligomer with membrane protein of tau knockout mouse brain; format: binding; details: HT-tau oligomers immobilized on HaloTag beads, western blot anti-NR1
T1 construct: from tissue
Description: Whether or not the tau oligomer and NMDAR directly bind and interact was confirmed by a pull-down assay using the HT-tau oligomer. Magne™ HaloTag beads (Promega Corporation, #G728A) (50 mg) were added to the HT-tau oligomer sample (100 μl) prepared in the above (1-4), and a binding reaction was carried out at 4° C. for 12 hours to thereby immobilize the HT-tau oligomers on the beads. Additionally, brain slice specimens were prepared from tau knockout mice (B6.129X1-Mapt^tm1Hnd/J, Jackson Laboratory) by the same procedure as in the above (2-1) and were homogenized in 50-fold volume of the lysis buffer (4 mM of HEPES, 2 mM of EGTA, 0.32 M of sucrose, 1% Protease Inhibitor Cocktail, 1% Phosphatase Inhibitor Cocktail (Nacalai Tesque Inc., #07575-51)), and the lysate was centrifuged at 4° C., 12,000×g for 15 minutes to thereby collect pellets. The obtained pellets were dissolved in a 2% cholic acid or 1% deoxycholate/TBS solution (25 mM of Tris-HCl, 150 mM of NaCl, pH 7.4) and the resultant was used as a membrane protein solution. […] The obtained tau oligomer-membrane protein complexes were applied to SDS-PAGE electrophoresis, and NMDARs were detected by the western blot. […]

NMDAR [2] = biological target: T2, NMDAR (Homo sapiens, UniProt Q05586); test: Measurement of calcium influx through NMDAR into NT2-N cells; format: cell-based
T2 construct: endogenous in cells; host or cells: NT2-N neurons differentiated from NTERA-2 cl.D1 [NT2/D1] cells (ATCC CRL-1973)
Description: Cultured neurons expressing NMDARs retaining physiological functions were prepared by the following procedure to evaluate the NMDAR activation ability of the tau oligomer. The NTERA-2 cl.D1[NT2/D1] cells (ATCC CRL-1973) (hereinafter described as “NT2 cell”), which are derived from a human pluripotent embryonic cancer, were adhesively cultured on 10-cm plastic dish in maintenance culture medium (high glucose DMEM (Sigma-Aldrich, D6429), 10% FBS, 100 U/ml penicillin/streptomycin) under the conditions of 37° C. and 5% CO2 for 3 to 4 days until the confluency stage was attained. The NT2 cells were detached using Accutase (Innovative Cell Technologies, #AT104), were passaged, and were maintained over a period of 50 days. The medium was replaced 3 times a week.
The maintenance-cultured NT2 cells were dispersed in a low attachment petri dish (STAR SDish9015, RIKAKEN CO., LTD.) in a concentration of 1.5×10^6 to 2.5×10^6/dish, suspension-cultured under the conditions of 37° C. and 5% CO2 on a shaker (100 rpm), and 1 day later were induced to differentiate by adding 1 μM of all-trans-retinoic acid (abcam), to thereby form spheroids. 14 days later, the spheroids were collected, seeded in a 10-cm dish coated with 5 μg/ml of poly-D-lysin (PDL) (Sigma-Aldrich)/Laminin (LAM) (iMatrix-511, Nippi Inc.) and adhesively cultured under the conditions of 37° C. and 5% CO2. From the following day, the culture was carried out by adding 3 kinds of cell division inhibitors (10 μM of uridine, 10 μM of floxuridine, and 1 μM of AraC). […]
For analysis, 5 to 10 regions of the visual field of the NT2-N cells positioned in the system were manually set and the fluorescence intensities were recorded for each region, for Cal-520, every 1 minute for 1 hour continuously at excitation wavelength 480 nm/fluorescence emission wavelength 520 nm, and for Fluo-8, every 2 seconds for 5 minutes continuously at excitation wavelength 480 nm/fluorescence emission wavelength 520 nm. […]

T1 sequence (P35436 23-1464, other chains not shown): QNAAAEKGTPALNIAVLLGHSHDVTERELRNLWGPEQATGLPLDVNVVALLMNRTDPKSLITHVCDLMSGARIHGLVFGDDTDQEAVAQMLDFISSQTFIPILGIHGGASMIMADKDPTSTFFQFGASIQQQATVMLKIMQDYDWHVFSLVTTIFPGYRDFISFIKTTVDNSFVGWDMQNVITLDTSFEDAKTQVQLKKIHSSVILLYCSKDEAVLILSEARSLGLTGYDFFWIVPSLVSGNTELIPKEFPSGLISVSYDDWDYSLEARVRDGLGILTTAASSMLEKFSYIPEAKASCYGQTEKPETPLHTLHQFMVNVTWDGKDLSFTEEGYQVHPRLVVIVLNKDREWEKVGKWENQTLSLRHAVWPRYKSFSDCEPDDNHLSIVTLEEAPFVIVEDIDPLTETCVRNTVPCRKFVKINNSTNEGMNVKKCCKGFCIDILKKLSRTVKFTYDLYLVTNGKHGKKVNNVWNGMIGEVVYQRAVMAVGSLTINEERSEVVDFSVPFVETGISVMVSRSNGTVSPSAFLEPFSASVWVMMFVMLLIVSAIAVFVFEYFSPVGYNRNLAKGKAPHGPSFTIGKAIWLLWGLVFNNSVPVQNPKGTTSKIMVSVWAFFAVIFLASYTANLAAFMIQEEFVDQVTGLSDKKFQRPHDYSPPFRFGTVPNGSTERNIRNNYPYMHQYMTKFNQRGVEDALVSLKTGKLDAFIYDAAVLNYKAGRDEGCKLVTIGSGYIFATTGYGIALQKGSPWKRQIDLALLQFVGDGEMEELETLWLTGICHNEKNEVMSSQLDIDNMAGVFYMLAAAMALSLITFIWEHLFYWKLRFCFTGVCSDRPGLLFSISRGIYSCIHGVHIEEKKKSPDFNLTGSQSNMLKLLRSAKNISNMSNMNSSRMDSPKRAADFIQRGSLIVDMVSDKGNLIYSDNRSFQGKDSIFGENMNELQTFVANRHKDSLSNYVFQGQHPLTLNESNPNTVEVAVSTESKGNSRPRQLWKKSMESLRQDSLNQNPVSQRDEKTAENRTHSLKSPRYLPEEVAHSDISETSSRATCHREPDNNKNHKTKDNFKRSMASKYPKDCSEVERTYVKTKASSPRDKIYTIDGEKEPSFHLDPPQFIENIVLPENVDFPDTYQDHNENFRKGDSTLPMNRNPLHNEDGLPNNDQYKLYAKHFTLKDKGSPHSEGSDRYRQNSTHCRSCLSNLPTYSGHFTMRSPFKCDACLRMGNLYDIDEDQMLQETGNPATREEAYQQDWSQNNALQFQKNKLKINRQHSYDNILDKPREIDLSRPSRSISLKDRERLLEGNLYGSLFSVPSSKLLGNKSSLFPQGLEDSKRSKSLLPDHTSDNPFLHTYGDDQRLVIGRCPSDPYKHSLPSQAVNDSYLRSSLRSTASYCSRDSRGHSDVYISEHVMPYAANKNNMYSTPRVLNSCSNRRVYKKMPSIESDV
T1 sequence (Q01097 27-1482, other chains not shown): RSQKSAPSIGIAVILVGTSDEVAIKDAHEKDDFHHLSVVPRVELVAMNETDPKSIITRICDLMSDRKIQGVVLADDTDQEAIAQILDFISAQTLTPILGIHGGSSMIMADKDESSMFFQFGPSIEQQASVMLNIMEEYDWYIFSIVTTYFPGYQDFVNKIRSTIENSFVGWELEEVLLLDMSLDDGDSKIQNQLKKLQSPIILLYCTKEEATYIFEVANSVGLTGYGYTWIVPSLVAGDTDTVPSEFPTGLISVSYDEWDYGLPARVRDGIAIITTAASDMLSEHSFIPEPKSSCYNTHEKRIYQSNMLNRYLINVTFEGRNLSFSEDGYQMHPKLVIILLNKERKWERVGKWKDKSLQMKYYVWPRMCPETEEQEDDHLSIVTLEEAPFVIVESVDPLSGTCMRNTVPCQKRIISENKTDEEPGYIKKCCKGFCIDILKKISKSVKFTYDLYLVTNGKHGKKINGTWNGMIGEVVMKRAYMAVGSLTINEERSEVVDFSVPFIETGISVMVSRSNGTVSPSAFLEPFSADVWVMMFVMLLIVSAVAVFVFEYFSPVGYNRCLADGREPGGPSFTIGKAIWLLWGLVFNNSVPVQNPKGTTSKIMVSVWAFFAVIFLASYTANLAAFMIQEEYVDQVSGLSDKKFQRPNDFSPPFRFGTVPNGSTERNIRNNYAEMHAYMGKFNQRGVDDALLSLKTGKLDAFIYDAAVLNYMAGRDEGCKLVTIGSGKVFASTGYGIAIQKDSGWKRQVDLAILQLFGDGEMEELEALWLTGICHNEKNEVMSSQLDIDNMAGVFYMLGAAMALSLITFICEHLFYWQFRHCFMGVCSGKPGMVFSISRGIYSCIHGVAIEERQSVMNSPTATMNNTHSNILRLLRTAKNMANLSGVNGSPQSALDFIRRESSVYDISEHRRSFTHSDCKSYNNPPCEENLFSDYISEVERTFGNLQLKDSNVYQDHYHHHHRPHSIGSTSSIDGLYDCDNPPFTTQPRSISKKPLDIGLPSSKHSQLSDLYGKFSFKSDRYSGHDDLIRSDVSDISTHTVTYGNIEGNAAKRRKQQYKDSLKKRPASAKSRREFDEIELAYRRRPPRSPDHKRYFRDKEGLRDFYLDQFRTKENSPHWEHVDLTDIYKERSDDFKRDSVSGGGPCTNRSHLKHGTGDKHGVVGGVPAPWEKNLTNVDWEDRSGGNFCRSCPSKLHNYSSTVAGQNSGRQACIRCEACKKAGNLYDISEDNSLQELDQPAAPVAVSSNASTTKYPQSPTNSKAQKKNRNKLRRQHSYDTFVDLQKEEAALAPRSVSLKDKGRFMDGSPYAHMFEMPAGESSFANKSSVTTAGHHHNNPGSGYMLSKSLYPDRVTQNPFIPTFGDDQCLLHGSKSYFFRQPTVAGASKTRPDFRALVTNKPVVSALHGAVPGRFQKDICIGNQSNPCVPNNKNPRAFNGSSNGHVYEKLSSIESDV

## tau oligomer: polymer of human tau 2N4R monomers, polymerized with mouse brain extract and ATP, collected as pellets
NMDAR [1]
  binding of NMDAR in pull-down assay: directly bound
NMDAR [2]; Cal-520, NT2-N cells, 3 minutes after administration
  increase of intracellular calcium concentration (NMDAR activation ability): has the NMDAR activation ability
NMDAR [2]; Fluo-8, NT2-N cells, 100 μl of 0.03 μg/ml in HHBS
  intracellular calcium concentration: increased over time
